From publication PMC13137973, “Tumor Necrosis Factor Receptor 2 Inhibits HIV-1 Infection by Blocking the Binding of gp120 to CD4” (International Journal of Biological Sciences, 2026)

Target: T1, human immunodeficiency virus 1 (HIV-1) (group M, subtype B, Isolate MN) gp120 Protein (HIV-1 (group M, subtype B, isolate MN), UniProt P05877 30-513)
T1 construct: also called gp120 core; His-tagged gp120; source: bought: Sino Biological (Catalog No: 40405-V08H)
Test: ELISA; plates coated with human TNFR1 or TNFR2 (5 µg/mL, carbonate buffer pH 9.6, overnight 4 °C), blocked with 3% BSA; serial dilutions of gp120, 2 h room temperature; wash 20 mM Tris-HCl, 500 mM NaCl, 0.05% Tween-20, pH 7.5; bound gp120 detected with anti-His-HRP
Settings: both partners purified

B1: human TNFR2 / CD120b protein, extracellular domain (residues 1-257) (domain or fragment, UniProt P20333-1 23-257, looked up)
chain: LPAQVAFTPYAPEPGSTCRLREYYDQTAQMCCSKCSPGQHAKVFCTKTSDTVCDSCEDSTYTQLWNWVPECLSCGSRCSSDQVETQACTREQNRICTCRPGWYCALSKQEGCRLCAPLRKCRPGFGVARPGTETSDVVCKPCAPGTFSNTTSSTDICRPHQICNVVAIPGNASMDAVCTSTSPTRSMAPGAVHLPQPVSTRSQHTQPTPEPSTAPSTSFLLPMGPSPPAEGSTGD
notes: also called tumor necrosis factor receptor type II; immobilized TNFR2; source: bought: Sino Biological (Catalog No: 10417-H08H)
B1: binds.
